According to article PMC6954902 (Protein & Cell, 2019):

T1: MtEccCb1-ATPase3 (ATPase3 domain of EccCb1 from Mycobacterium tuberculosis, residues 315-591) (Mycobacterium tuberculosis H37Rv, UniProt P9WNB1 315-591)
T1 sequence: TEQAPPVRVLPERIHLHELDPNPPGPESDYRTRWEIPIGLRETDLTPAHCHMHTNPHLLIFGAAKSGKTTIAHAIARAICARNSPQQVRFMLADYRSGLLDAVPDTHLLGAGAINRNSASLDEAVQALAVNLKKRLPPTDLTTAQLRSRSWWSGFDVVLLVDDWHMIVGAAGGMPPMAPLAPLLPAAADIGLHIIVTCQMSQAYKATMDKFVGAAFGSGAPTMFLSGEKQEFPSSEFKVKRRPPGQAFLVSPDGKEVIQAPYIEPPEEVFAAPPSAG

B1: MtEsxB (culture filtrate protein CFP-10 of Mycobacterium tuberculosis) (natural protein)
chain: MAEMKTDAATLAQEAGNFERISGDLKTQIDQVESTAGSLQGQWRGAAGTAAQAAVVRFQEAANKQKQELDEISTNIRQAGVQYSRADEEQQQALSSQMGF

Biological target: T1, MtEccCb1-ATPase3 (ATPase3 domain of …)
Assay: ITC
Conditions: both partners purified

Binder	Kd [µM]
B1	34
RADEEQQQALSSQMGF (source: synthetic peptide) [wild-type peptide corresponding to the C-terminal 16-residues of MtEsxB]	55
